Results from patent publication US20240043859A1, “HERBICIDE-RESISTANT PROTEIN, AND GENE AND USE THEREOF” (QINGDAO KINGAGROOT CHEMICAL COMPOUND CO., LTD., priority 2020, published 2024).
Entries after “also recorded” stand apart in the source; their conditions may differ.

How the values were obtained:
[1] = assay type: cell-based, Escherichia coli
Experimental: To transform the plasmids to be tested, an AAD12-expressing plasmid and a blank control plasmid pET15b were respectively transformed into the protein expression E. coli BL21(DE3) strains. A monoclone was selected and inoculated in a 10 ml centrifuge tube with 3 ml LB medium, and cultivated at 37° C., 200 rpm for 6-8 hours. […] The temperature was switched to 28° C. and the cultivation continued overnight. In the next morning, 200 μL of each bacteria solution was taken and centrifuged to precipitate thallus, 180 μL of the supernatant was taken and added in a 96-well plate, and 20 μL of borate buffer of pH 10 was added. Then the mixture was added with 2 μL of 8% potassium ferricyanide and mixed well, followed by adding 2 μL of 2% 4-aminoantipyrine, and placed at room temperature for 5 min to observe the color and detect the A510 value. […]

Arabidopsis thaliana = experiment: Herbicide resistance of transgenic Arabidopsis thaliana seedlings on plate medium (root growth); assay type: in vivo; settings: Arabidopsis overexpressing the gene
Experimental: Expression in Arabidopsis thaliana was regulated by its AtUbi10 Arabidopsis thaliana ubiquitin promoter and the MAS (mannopine synthase) terminator. Hygromycin resistance gene (HygR=hpt) served as the selection marker.
Preparation of Agrobacterium infection solution: An activated Agrobacterium (GV3101) monoclone was picked and inoculated in 30 ml YEP liquid medium [yeast powder 10 g/L, tryptone 10 g/L, NaCl 5 g/L, 25 mg/L Rifampicin and 50 mg/L Kanamycin], shaking-cultured at 200 rmp/min, 28° C. overnight until the OD600 was about 1.0-1.5, then centrifuged at 6000 rmp/min for 10 min to collect the bacteria, and the supernatant was discarded. Arabidopsis thaliana infection solution (sucrose 50 g/L, Silwet L-77 300 μL/L, no need to adjust pH) was used to resuspend the cells to OD600=0.8 for later use.
Genetic transformation of Arabidopsis thaliana by flower dipping: Before transformation of Arabidopsis thaliana plants, attentions were paid to whether the plants were growing well, the inflorescences were abundant, and no stress response occurred. The first transformation was performed when plants were about 20 cm high. Plants could be properly watered if the soil was dry. The grown siliques were cut off with scissors the day before transformation. The inflorescences of the plants to be transformed were soaked in the above-mentioned Agrobacterium solution for 30 seconds to 1 minute, which was stirred gently during the period. And a layer of liquid film should appear on the infiltrated plant. The transformed plants were cultured in a dark environment for 24 hours, and then taken out and grown in a normal light environment. A second transformation could be performed in the same way a week later.
Seeds were treated with disinfectant for 5 min, washed with sterile water for 5 times and then one part was spread on MS transgenic screening medium (containing 30 μg/mL hygromycin, 100 μg/mL carbenicillin) to screen transgenic seedlings, and the other part was spread on MS medicated medium [containing 250 μg/mL Cefotaxime sodium and 0.3 μM 2,4-D] to screen herbicide-resistant seedlings at mean time. The petri dish spread with seeds was placed at 4° C. for vernalization for 3 days, and taken out to a illumination incubator for cultivation (temperature of 22° C., 16 hours of light, 8 hours of darkness, light intensity of 100-150 μmol/m^2/s, humidity of 75%). After one week, it was observed that the roots of the wild-type control seedlings were not elongated and their growth was inhibited, while the transgenic seedlings had normal root growth, showing drug resistance. The transgenic positive seedlings and herbicide-resistant seedlings were photographed and transplanted into small pots filled with soil for cultivation.
The transgenic lines with the nine vectors, pQY2309, pQY2310, pQY2311, pQY2312, pQY2313, pQY2314, pQY2315, pQY2316 and pQY2317, overexpressing AAD gene in the T2 generation were further tested on plate medium for their resistance to 2,4-D, 2,4-DB sodium and MCPA herbicide. Two events were tested for each transformant.

[2] = Chromogenic reaction of degrading herbicides in bacteria: 2,4-D; assay type: cell-based, Escherichia coli; settings: recombinant E. coli expressing the gene, 2,4-D added to the medium, red = phenols
Experimental: To transform the plasmids to be tested, an AAD12-expressing plasmid and a blank control plasmid pET15b were respectively transformed into the protein expression E. coli BL21(DE3) strains. A monoclone was selected and inoculated in a 10 ml centrifuge tube with 3 ml LB medium, and cultivated at 37° C., 200 rpm for 6-8 hours. The culture medium was added with 0.1 mM IPTG and 2 mM α-ketoglutaric acid, and then 0.5 mM 2,4-D. The temperature was switched to 28° C. and the cultivation continued overnight. In the next morning, 200 μL of each bacteria solution was taken and centrifuged to precipitate thallus, 180 μL of the supernatant was taken and added in a 96-well plate, and 20 μL of borate buffer of pH 10 was added. Then the mixture was added with 2 μL of 8% potassium ferricyanide and mixed well, followed by adding 2 μL of 2% 4-aminoantipyrine, and placed at room temperature for 5 min to observe the color and detect the A510 value.
The bacteria solution also appeared red when 2,4-D was directly added into the medium of AAD12-expressing bacteria, as shown in FIG. 1.
2,4-D was added into these bacteria solutions of AAD gene-expressing recombinant E. coli and cultivation was continued for color development.

Molecule	Chromogenic reaction of degrading herbicides in bacteria: MCPA [1]	Chromogenic reaction of degrading herbicides in bacteria: 2,4-D [2]	also measured
QYD21: AAD-like enzyme, SEQ ID NO. 41 (protein, Synthetic polypeptide, QYD21, D21) MTTIETKPLTPCFGVEVSGMTLSEVSKGHDFARLRDLFEEHSALLFRAQEISNEEHMALAQLFGPIEDRKADERKPGEAFEVPEVSNVQKDGTTSGEMDLHTLNLKSNFLWHSDSTFLPTPALTNILIGRVVTTEGGATELASTRAAWAAMPEELKSRIRGRGIWHRYSHSRRKISPELAKLPMFNKWPDQHWSAVWPNPVNGREGLYIASHAFKVDGYDEAESQELLDELMAFCTQPEFTYAHQWNVGDVLIWDQRAVLHRGTPWPYEQPRTLSSICVSVTEADGIGSIRMPA	Yes	Yes	Resistance of transgenic Arabidopsis thaliana: 2,4-D (Arabidopsis thaliana): Yes; Chromogenic reaction of degrading herbicides in bacteria: 2,4-D ([2]; listed as D21): could degrade 2,4-D; also recorded: capable of degrading 2,4-D
QYD26: AAD-like enzyme, SEQ ID NO. 51 (protein, Synthetic polypeptide, QYD26, D26) MSEFIYTLPSHNRAASYSHIRVTPTTGAIGADVENLDLTRLSDEGFAELRQALLAHKVIFIRDQALSVADLERVTQHLGEFGREPYVTCMADHPHVVHVVKEASEKAPFVFGGAWHTDWTFQERPPAFTLLYGHDIPPYGGDTCYANLALAYEWLSPGMQALLENLDAVHSPEMAYGVNAKHNALLENMAINYGSDTSADERSHPLVTRHPETGKKVLFINPAYTTGIKGLRTEESRPLLDYLFKLATSEAFTCRMRWRQGTLAIWDNRSTWHMPVADYHGMRREMFRTTVIGEVPSR	Yes	Yes	Resistance of transgenic Arabidopsis thaliana: 2,4-D (Arabidopsis thaliana): Yes; Chromogenic reaction of degrading herbicides in bacteria: 2,4-D ([2]; listed as D26): red reactions
QYD62: AAD-like enzyme, SEQ ID NO. 123; 100.00% identical to US20140141044-13793 (for medical field) (protein, Synthetic polypeptide, QYD62, D62) MTIAIRQLHKHFVGEVSGLDLRKPLTADEARDIEAAMDKYAVLVFHDQDITDEQQMAFALNFGQREDARGGTVTKAKDYRLQSGLNDVSNLGKDGKPLAKDSRTHLFNLGNCLWHSDSSFRPIPAKFSLLSARVVNPKGGNTEFADMRAAYDALDDETKTEIEDLVCEHSLMYSRGSLGFTEYTDEEKEMFKPVLQRLVRTHPVHRRKSLYLSSHAGKVVGMSVPEGRLLLRDLNEHATQPEFVYVHKWKLHDLVMWDNRQTMHRVRRYDQSQPRDMRRATVAGTEPTVQQQAAE	Yes	Yes	Chromogenic reaction of degrading herbicides in bacteria: 2,4-D ([2]; listed as D62): could degrade 2,4-D; also recorded: capable of degrading 2,4-D
QYD33: AAD-like enzyme, SEQ ID NO. 65 (protein, Synthetic polypeptide, QYD33, D33) MSEHFDVEPLDASFGARITGLKLTEMSDAAFDALYETWLEHGLLLFPDQHMEPEAQVDVARRFGPLEVKLFAISNLKDDGSVRTSDEDDLVKILKGNMGWHHDSTYMPLQAKGAVFSAHVVPSEGGETGFADMRQAWDALDDDMKRRLEGLTALHSLHYSQMKAGFRRKEKDSEYIGYGLDERPPVRRQMVKVHPETGRKSLLVGRHAFGVSGMSEKESEEFVDGLNEFAGSGDWTYHHKWTPGEVVLWDNRCLMHRACPWDMTKPRVMYHSRIAGDPVSEAEVAA	NO	Yes	Chromogenic reaction of degrading herbicides in bacteria: 2,4-D ([2]; listed as D33): red reactions
QYD35: AAD-like enzyme, SEQ ID NO. 69 (protein, Synthetic polypeptide, QYD35, D35) MSARPFTVEPLPATFGARITGLDLAALDDATFAALYDAWLEYALLIFPGAGLSTAEQVTFARRFGDMEFDIAPLSNVRKDGSLRADDGTDDVVKVLRGNMGWHADSTYMPVQAKGAVFSAHVVPEEGGETGWADMRAAYDALDDDLRRRIEGLSAHHSLVHSQARLGHAHGTDSEYSGYGFHDEAPLRPLVKVHPETGRRSLLIGRHAYGIPGLEETASERLLDELVDFACRPPRVYHHRWQVGDVVLWDNRCLLHRACPWDMSRPRVMYHSRIAGDPVTEAGLAGQSEQPSASGS	NO	Yes	Chromogenic reaction of degrading herbicides in bacteria: 2,4-D ([2]; listed as D35): red reactions
QYD75: AAD-like enzyme, SEQ ID NO. 149 (protein, Synthetic polypeptide, QYD75, D75) MPSFNIAPIDASFGAVVTGIRLATVDDERWRELHQAWLEHALLIFPGQHLSRDEQISFARRFGPLEFDMAAISNVKSDGTLRIEADNDDVVKILKGNMGWHADSTYMSVQAKGAVFSAEVVPAAGGQTGFADMRAAYDALDDGLRTKVETLAAHHSLHYSQAKLGHQPEAGSAYSGYGFHAGPVPLRPLVKTHPETGRKSLLIGRHAHNIPGLDPDESERLLDELVDFACQAPRVYHHSWSAGDVVIWDNRCLLHRATPWDMTQPRVMWHSRIAGDPVAEASLN	Yes	Yes	Chromogenic reaction of degrading herbicides in bacteria: 2,4-D ([2]; listed as D75): could degrade 2,4-D; also recorded: capable of degrading 2,4-D
QYD54: AAD-like enzyme, SEQ ID NO. 107 (protein, Synthetic polypeptide, QYD54, D54) MARMFDIAPLDATFGAVVTGVKVTRIDDATWRDLHAAWLEYALLIFPGQFLSRAEQIAFAKRFGPLEFEMAPISNVKADGTIRIEADNDDVVKVLKGNMGWHADSTYMPVQAKGAVFSAEVVPGEGGRTGWADMRAAYDALDAARRVRVESLTAYHSLYYSQAKLGHQPKRGSDYSGYGFHDGPVPRRPLVKVHPETGRKSLLIGRHAHNIPGMDVAESTQFLESLVDFACQPPRIYHHQWTAGDAVVWDNRCLLHRATPWDMTKPRVMWHSRIAGDPVSEASLG	Yes	Yes	Chromogenic reaction of degrading herbicides in bacteria: 2,4-D ([2]; listed as D54): could degrade 2,4-D; also recorded: capable of degrading 2,4-D
